# Assay results taken from IntAct's records for PubMed 31515488.
# B1: Protein FAM9B (Homo sapiens), Q8IZU0 (parent)
# chain: MAAWGKKHAGKDPVRDECEERNRFTETREEDVTDEHGEREPFAETDEHTGANTKKPEDTAEDLTAKRKRMKMDKTCSKTKNKSKHALRKKQLKRQKRDYIHSLKLLNVLEEYITDEQKEEEEEEGEEEELIRIFQEQQKKWQQYRSVRRERLKEMKLLRDQFVKALEDFEDLCDRVFSDEDSELDN
# partner: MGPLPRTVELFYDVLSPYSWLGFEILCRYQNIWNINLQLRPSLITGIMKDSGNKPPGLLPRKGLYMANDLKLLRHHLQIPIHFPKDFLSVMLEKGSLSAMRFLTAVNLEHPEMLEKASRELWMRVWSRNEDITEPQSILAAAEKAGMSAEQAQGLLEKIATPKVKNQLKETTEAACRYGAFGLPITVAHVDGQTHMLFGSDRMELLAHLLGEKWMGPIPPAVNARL
# B2: Syntenin-2 (Homo sapiens), Q9H190 (parent)
# chain: MSSLYPSLEDLKVDQAIQAQVRASPKMPALPVQATAISPPPVLYPNLAELENYMGLSLSSQEVQESLLQIPEGDSTAVSGPGPGQMVAPVTGYSLGVRRAEIKPGVREIHLCKDERGKTGLRLRKVDQGLFVQLVQANTPASLVGLRFGDQLLQIDGRDCAGWSSHKAHQVVKKASGDKIVVVVRDRPFQRTVTMHKDSMGHVGFVIKKGKIVSLVKGSSAARNGLLTNHYVCEVDGQNVIGLKDKKIMEILATAGNVVTLTIIPSVIYEHMVKKLPPVLLHHTMDHSIPDA
# partner: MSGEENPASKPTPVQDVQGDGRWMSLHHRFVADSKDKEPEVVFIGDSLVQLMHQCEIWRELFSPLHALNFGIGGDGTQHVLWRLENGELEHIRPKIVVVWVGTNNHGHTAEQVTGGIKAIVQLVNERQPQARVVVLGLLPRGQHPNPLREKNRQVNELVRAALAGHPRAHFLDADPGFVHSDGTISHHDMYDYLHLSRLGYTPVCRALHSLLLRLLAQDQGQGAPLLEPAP
# B3: Syntenin-1 (Homo sapiens), O00560 (parent)
# chain: MSLYPSLEDLKVDKVIQAQTAFSANPANPAILSEASAPIPHDGNLYPRLYPELSQYMGLSLNEEEIRANVAVVSGAPLQGQLVARPSSINYMVAPVTGNDVGIRRAEIKQGIREVILCKDQDGKIGLRLKSIDNGIFVQLVQANSPASLVGLRFGDQVLQINGENCAGWSSDKAHKVLKQAFGEKITMTIRDRPFERTITMHKDSTGHVGFIFKNGKITSIVKDSSAARNGLLTEHNICEINGQNVIGLKDSQIADILSTSGTVVTITIMPAFIFEHIIKRMAPSIMKSLMDHTIPEV
# B4: DnaJ homolog subfamily C member 30, mitochondrial (Homo sapiens), Q96LL9 (parent)
# chain: MAAMRWRWWQRLLPWRLLQARGFPQNSAPSLGLGARTYSQGDCSYSRTALYDLLGVPSTATQAQIKAAYYRQCFLYHPDRNSGSAEAAERFTRISQAYVVLGSATLRRKYDRGLLSDEDLRGPGVRPSRTPAPDPGSPRTPPPTSRTHDGSRASPGANRTMFNFDAFYQAHYGEQLERERRLRARREALRKRQEYRSMKGLRWEDTRDTAAIFLIFSIFIIIGFYI
# partner: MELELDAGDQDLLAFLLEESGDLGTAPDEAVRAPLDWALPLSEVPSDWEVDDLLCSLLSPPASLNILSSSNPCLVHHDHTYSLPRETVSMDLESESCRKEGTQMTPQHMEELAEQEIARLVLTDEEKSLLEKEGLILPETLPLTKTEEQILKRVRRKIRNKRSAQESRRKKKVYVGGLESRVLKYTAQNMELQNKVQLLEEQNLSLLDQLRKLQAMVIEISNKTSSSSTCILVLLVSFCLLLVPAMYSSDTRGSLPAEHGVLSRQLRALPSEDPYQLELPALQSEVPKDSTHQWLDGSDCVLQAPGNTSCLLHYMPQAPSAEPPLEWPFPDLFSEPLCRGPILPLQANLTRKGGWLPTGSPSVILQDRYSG
# B5: Protein BANP (Homo sapiens), Q8N9N5 (parent)
# chain: MMSEHDLADVVQIAVEDLSPDHPVVLENHVVTDEDEPALKRQRLEINCQDPSIKTICLRLDSIEAKLQALEATCKSLEEKLDLVTNKQHSPIQVPMVAGSPLGATQTCNKVRCVVPQTTVILNNDRQNAIVAKMEDPLSNRAPDSLENVISNAVPGRRQNTIVVKVPGQEDSHHEDGESGSEASDSVSSCGQAGSQSIGSNVTLITLNSEEDYPNGTWLGDENNPEMRVRCAIIPSDMLHISTNCRTAEKMALTLLDYLFHREVQAVSNLSGQGKHGKKQLDPLTIYGIRCHLFYKFGITESDWYRIKQSIDSKCRTAWRRKQRGQSLAVKSFSRRTPNSSSYCPSEPMMSTPPPASELPQPQPQPQALHYALANAQQVQIHQIGEDGQVQVGHLHIAQVPQGEQVQITQDSEGNLQIHHVGQDGQLLEATRIPCLLAPSVFKASSGQVLQGAQLIAVASSDPAAAGVDGSPLQGSDIQVQYVQLAPVSDHTAGAQTAEALQPTLQPEMQLEHGAIQIQ
# partner: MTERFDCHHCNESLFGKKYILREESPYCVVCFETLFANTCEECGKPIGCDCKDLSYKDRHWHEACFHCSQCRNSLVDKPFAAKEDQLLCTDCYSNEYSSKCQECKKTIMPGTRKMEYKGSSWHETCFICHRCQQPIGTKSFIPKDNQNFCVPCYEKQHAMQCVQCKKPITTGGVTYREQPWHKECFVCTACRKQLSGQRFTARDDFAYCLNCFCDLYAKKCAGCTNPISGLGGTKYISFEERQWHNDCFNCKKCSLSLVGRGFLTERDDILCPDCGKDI
# B6: Isoform 1 of Protein quaking (Homo sapiens), Q96PU8-1 (parent)
# chain: MVGEMETKEKPKPTPDYLMQLMNDKKLMSSLPNFCGIFNHLERLLDEEISRVRKDMYNDTLNGSTEKRSAELPDAVGPIVQLQEKLYVPVKEYPDFNFVGRILGPRGLTAKQLEAETGCKIMVRGKGSMRDKKKEEQNRGKPNWEHLNEDLHVLITVEDAQNRAEIKLKRAVEEVKKLLVPAAEGEDSLKKMQLMELAILNGTYRDANIKSPALAFSLAATAQAAPRIITGPAPVLPPAALRTPTPAGPTIMPLIRQIQTAVMPNGTPHPTAAIVPPGPEAGLIYTPYEYPYTLAPATSILEYPIEPSGVLGAVATKVRRHDMRVHPYQRIVTADRAATGN
# Variants of: B1
# Details: with gstk1_human GSTK1, Q9Y2Q3
row,Variant,effect of a mutation on the interaction
1,R23H,with no effect

# Variants of: B2
# Details: with pa1b3_human PAFAH1B3, Q15102
row,Variant,effect of a mutation on the interaction
1,G242R,with no effect
2,G225R,with no effect
3,V182M,with no effect

# Variants of: B3
# Details: with cryaa_human CRYAA
row,Variant,effect of a mutation on the interaction
1,K124R,with no effect

# Variants of: B3
# Details: with cox41_human COX4I1, P13073
# Chain of cox41_human COX4I1, P13073 (P13073 whole entry): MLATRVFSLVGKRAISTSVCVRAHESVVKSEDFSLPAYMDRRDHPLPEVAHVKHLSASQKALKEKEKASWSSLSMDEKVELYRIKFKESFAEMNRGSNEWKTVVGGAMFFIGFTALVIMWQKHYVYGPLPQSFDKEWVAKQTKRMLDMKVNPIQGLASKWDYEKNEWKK
row,Variant,effect of a mutation on the interaction
1,K124R,with no effect

# Variants of: B3
# Details: with frih_human FTH1, P02794
row,Variant,effect of a mutation on the interaction
1,K124R,with no effect

# Variants of: B4
# Details: with creb3_human CREB3, O43889
row,Variant,effect of a mutation on the interaction
1,T48K,with no effect

# Variants of: B5
# Details: with fhl2_human FHL2, Q14192
row,Variant,effect of a mutation on the interaction
1,P348S,with no effect

# Variants of: B6
# Details: with hnrpk_human HNRNPK
row,Variant,effect of a mutation on the interaction
1,R336Q,with no effect

# Variants of: B6
# Details: with fubp3_human FUBP3, Q96I24
# Chain of fubp3_human FUBP3, Q96I24 (Q96I24 whole entry): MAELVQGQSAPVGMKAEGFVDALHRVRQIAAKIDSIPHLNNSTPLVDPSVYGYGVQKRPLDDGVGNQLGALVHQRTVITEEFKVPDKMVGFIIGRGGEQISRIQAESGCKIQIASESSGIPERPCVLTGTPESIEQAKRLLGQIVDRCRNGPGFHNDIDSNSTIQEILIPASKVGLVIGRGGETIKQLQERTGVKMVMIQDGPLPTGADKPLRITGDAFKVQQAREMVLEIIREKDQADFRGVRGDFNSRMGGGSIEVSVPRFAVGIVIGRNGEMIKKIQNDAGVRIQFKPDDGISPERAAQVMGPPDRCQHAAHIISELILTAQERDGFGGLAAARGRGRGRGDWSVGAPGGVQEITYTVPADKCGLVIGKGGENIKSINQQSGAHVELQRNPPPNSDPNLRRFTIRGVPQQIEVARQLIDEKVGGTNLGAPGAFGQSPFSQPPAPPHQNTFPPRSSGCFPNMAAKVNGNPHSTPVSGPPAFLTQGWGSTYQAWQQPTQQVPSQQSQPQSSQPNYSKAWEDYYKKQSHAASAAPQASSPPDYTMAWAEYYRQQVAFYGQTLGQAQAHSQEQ
row,Variant,effect of a mutation on the interaction
1,R336Q,with no effect

# Variants of: B6
# Details: with rbpms_human RBPMS
row,Variant,effect of a mutation on the interaction
1,R336Q,with no effect
